We go through one molecule from patent publication US20230391872A1 (ANAPTYSBIO, published 2023).

Test [1] has as its target T1, human BTLA on cells (stably transfected 293c18 cells; human peripheral blood T and B cells) (human, UniProt Q7Z6A9 31-289).
T1 construct: whole, on cells; the cells are named under assay; also called cell surface BTLA; full-length human BTLA
Nature of the test: flow cytometry (MFI DyL650) on gated CD4+ T cells of human PBMC, DyLight 650-labelled antibody, three-parameter fit [left panel (Naive CD4+ T cells]. Here is the method: Human peripheral blood mononuclear cells (PBMCs) were isolated by Histopaque (Sigma-Aldrich) density-gradient centrifugation of normal donor blood obtained from the San Diego Blood Bank (San Diego, CA). PBMCs were washed and incubated at 2×10⁷ cells/ml in FACS buffer (PBS, 1% BSA, 0.02% sodium azide) with Human BD Fc Block (2.5 μg/1×10⁶ cells, BD Biosciences) and LIVE/DEAD® Fixable Yellow Dead Cell Stain (30 μl, ThermoFisher Scientific) for 10 minutes on ice. Cells were washed once in FACS buffer, resuspended in FACS buffer at 1×10⁷ cells/ml and the following phenotyping antibodies added: Alexa Fluor 488-anti-human CD3E clone SK7, Brilliant Violet 421-anti-human CD4 clone OKT4, Brilliant Violet 785-anti-human CD8 clone SK1, and Brilliant Violet 570-anti-human CD20 clone 2H7 (50 μl each; all from BioLegend, Inc.). […] Samples were washed twice in FACS buffer, resuspended in 150 μl/well FACS buffer, and analyzed for fluorescence on a NovoCyte Flow Cytometer (ACEA Biosciences, Inc.). Data were analyzed using NovoExpress Software (ACEA Biosciences, Inc.). Median fluorescence intensities of anti-BTLA or isotype staining on gated CD4⁺ T cells (FIG. 4), CD8⁺ T cells (FIG. 4), or CD20⁺ B cells (FIG. 4) were graphed and curves fit with log(agonist) vs. response (three parameters) least squares fit for EC₅₀ calculation in GraphPad Prism (GraphPad Software, Inc.).
(Flow cytometry measures light scatter and fluorescence of single cells or particles in a stream.)

In test [2] the target is T2, cynomolgus monkey BTLA on cells (stably transfected 293c18 clone 1G5); cynomolgus peripheral blood T and B … (cynomolgus monkey, UniProt A0A2K5W7M7 31-289).
T2 construct: whole, on cells; also called cynomolgus monkey BTLA 293c18 cells
T2 sequence: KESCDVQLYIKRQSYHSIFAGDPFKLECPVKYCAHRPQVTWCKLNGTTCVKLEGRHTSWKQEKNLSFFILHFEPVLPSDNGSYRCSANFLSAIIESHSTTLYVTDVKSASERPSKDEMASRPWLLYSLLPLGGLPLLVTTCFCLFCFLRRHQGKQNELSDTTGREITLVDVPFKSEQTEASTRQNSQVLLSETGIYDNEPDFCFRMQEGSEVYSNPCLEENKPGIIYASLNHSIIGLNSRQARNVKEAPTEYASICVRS
Briefly: flow cytometry, AF647-labeled 6G3 IgG4 on cynomolgus monkey peripheral blood CD20+ B cells. Here is the method:
(§1) Blood was then aliquoted into wells and incubated with the indicated concentrations of 6G3-AF647 (APE13766.02), or APC-Mouse Anti-Human CD272 (BTLA) reference antibody (clone J168-540; BD Biosciences) for minutes at room temperature, in the dark. Following incubation, red blood cells were lysed for minutes by addition of 2.0 ml diluted BD Pharm Lyse lysing solution (BD Biosciences), samples centrifuged at 200×g for 5 minutes, washed in FACS Buffer [Dulbecco's PBS, no calcium, no magnesium (Gibco/ThermoFisher Scientific), 25 mM HEPES, pH 7.2, 0.1% BSA, sodium azide] and fixed in 4% paraformaldehyde (200 μl/sample) for 10 minutes at room temperature. Samples were washed twice in FACS Buffer and analyzed for fluorescence on a NovoCyte Quanteon flow cytometer (ACEA Biosciences, Inc.). Data were analyzed using NovoExpress Software (ACEA Biosciences, Inc.). Mean fluorescence intensity (MFI) values were graphed and fit with nonlinear regression analyses in GraphPad Prism (GraphPad Software, Inc.). MFI values for each anti-BTLA antibody on total CD3+cells are shown in FIG. 5A; MFI values for each anti-BTLA antibody on total CD20+cells are shown in FIG. 5B. […] Binding of each anti-BTLA antibody to CD3⁻ cells in FIG. 5C and FIG. 5D (green cells in the bottom quadrants of each panel) reflects the binding to CD20⁺ B cells. […]

Test [3] concerns the target T2, cynomolgus monkey BTLA on cells (stably …). Nature of the test: flow cytometry, AF647-labeled 6G3 IgG4 on cynomolgus monkey peripheral blood CD3+ T cells; not saturated at 100 nM. The procedure: as §1
Test [4] concerns the target β-galactosidase enzyme donor (ED)-tagged human BTLA on Jurkat cells (human, UniProt Q7Z6A9 31-289). Briefly: cell-based or functional assay.

B1: 6G3 IgG4 anti-BTLA antibody (APE10840 / APE12839 / APE13308) (antibody, V domains shown)
VH: QVQLVQSGAEVKKPGSSVKVSCKASGYVFSTSWMNWVRQAPGQGLEWMGRIYPGDADTNYVGKFKGRVTITADKSTTTAYMELSSLRSEDTAVYFCAKSGTFNFGNYRWYFDVWGKGTTVTVSS
VL: AIQLTQSPSSLSASVGDRVTITCRVSENIYSHLAWYQQKPGKAPKLLIYAATNLALGVPSRFSGSGSGTDYTLTISSLQPEDFATYYCQLFWGPPLTFGGGTKVEIKR
notes: Humanized antibody from a mouse hybridoma, tested as human IgG4 (detected with anti-human kappa); Some assays used labelled lots (DyLight 650, AF647, biotin, DyL488); also called 6G3 antibody; APE10840.03
With B1, the EC50 (commonly the concentration that produces a half-maximal response) is 2.44 nM in test [1], roughly 1.4 nM in test [2] and roughly 3.4 nM in test [3]. In addition, the “EC50, SHP2 recruitment PathHunter Jurkat BTLA signaling assay with U-2 OS hFcγRIa cells” value in test [4] was 0.0093 µg/mL. In addition, the “EC50, SHP2 recruitment PathHunter Jurkat BTLA signaling assay, soluble antibody” value in test [4] worked out at 0.125 µg/mL. For the same molecule, the “fold increase of agonist potency with cell-associated FcγRIa against the assay without FcγRIa” value in test [4] is roughly 13 fold.
